Data on 2 substances can be found in patent publication US20040157248.

Data set [1] has as its target RecAΔC17 (Escherichia coli) (UniProt P0A7G6). The settings on record: ATPase rate without SSB relative to with SSB, 10 mM Mg.
In data set [2] the target is RecA wild-type (Escherichia coli) (UniProt P0A7G6). The settings on record: ATPase rate without SSB relative to with SSB, 10 mM Mg.
Data set [3] has the same target. The settings on record: salt titration midpoint by DNA-dependent ATPase, no SSB, 37 C; value is NaCl at half-maximal ATPase.
The target of data set [4] is RecAΔC17 (Escherichia coli) (UniProt P0A7G6). The settings on record: salt titration midpoint by DNA-dependent ATPase, no SSB, 37 C; value is NaCl at half-maximal ATPase.
In data set [5] the target is RecA E38K/ΔC17 (Escherichia coli) (UniProt P0A7G6). The settings on record: apparent kcat of ATP hydrolysis with SSB-prebound poly(dT); no lag; higher with SSB than without.

For the substance M13mp8 circular ssDNA, the values for the relative ATPase rate in data set [1] and in data set [2] were 84% and 30%, respectively.

As for poly(dT), the K half in data set [3] was 750 mM NaCl; in data set [4], 700 mM NaCl. Moreover, the activity in data set [5] was over 20 min⁻¹.
